Reference: patent publication US9260728B2, “Terpene synthases from Santalum” (UNIVERSITY OF BRITISH COLUMBIA, priority 2009, dated 2016)

How the values were obtained:
[1] = GC-FID determination of reaction products of terpene synthases from FPP with magnesium or manganese; assay type: biochemical
[2] = as above; assay type: biochemical; remark: listed apart in the source
Protocol: Enzyme assays for all recombinant proteins were done in triplicate using the GC vial method described by O'Maille et al. (Anal. Biochem. 335:[…] (2004). For enzyme assays where only product identification was needed, 10 μg of protein was used in a final volume of 500 μL of reaction buffer (25 mM HEPES, 10% glycerol, 5 mM DTT and 10 mM of either Mg^2+ or Mn^2+. Substrates (FPP and GPP) were added to a final reaction concentration of 100 μM. Vials were overlaid with 500 μL of hexane to trap volatile products and incubated at 30° C. for 2 h. Mixtures were vortexed for 1 min to extract all volatiles and the vials were centrifuged to separate the organic layer.
Product mixtures were analysed by GC-MS in scan mode for product identification. A standard containing the three santalenes and α-trans-bergamotene was prepared by flash chromatography of 2 mL of neat S. album oil over silica and eluted in hexane. A final yield of 25 mg was resuspended in EtOAc and purity was confirmed by GC-FID with conditions described below. All mass spectra were compared to the NIST 2005 library and the literature. Retention indices were determined for all compounds using an n-alkane standard and compared to the literature (R. P. Adams, “Identification of essential oil components by gas chromatography/mass spectrometry,” Allured Publishing Corporation, Carol Stream, Ill. (1995)).
GC-FID was performed on a Shimadzu GC2010 with a 30 m 0.25 mm ID, 0.25 μm film DB-WAX column with He as the carrier gas. Splitless injection (2 μL) was used for all analyses. Conditions were as follows: injector 200° C., detector 250° C., column flow rate 1 mL/min. Oven program: 40° C. for 3 min, then 8° C./min to 180° C., held 5 min, then 10° C./min to 220° C., held 10 min. Needle height was adjusted to only draw from the upper organic layer of all sample vials. GC-MS was performed on a Shimadzu GC2010 with the same DB-WAX column and using He as the carrier gas. Conditions were as follows: injector 200° C., MS interface 240° C., ion source 200° C. Oven program: 40° C. for 3 min, then 8° C./min to 180° C., held 5 min, then 10° C./min to 220° C., held 10 min. Solvent cut time was set to 5 min. For product identification, total ion monitoring was used, scanning from m/z 45 to m/z 300. For kinetic assays, single ion monitoring of the sesquiterpene base ions m/z 91, 93 and 94 were used. Likewise monoterpene base ions (m/z 69, 71 and 93) were monitored. An internal standard (isobutyl benzene, 30 μM) was added to the hexane used to overlay each reaction. Detector response factors were calculated based on the santalene standard prepared earlier and used to determine the product concentrations for kinetic analysis.

B1: SspiSSy: santalene synthase from Santalum spicatum, gene SEQ ID NO:5, protein SEQ ID NO:6 (protein, listed as Santalum spicatum)
chain: MDSSTATATTAPFIDHTDHVNLKIDNDSSESRRMGNYKPSIWNYDFLQSLAIHHNIVEEKHLKLAEKLKGQVMSMFGAPMEPLAKLELVDVVQRLGLNHQFETEIKEALFSVYKDGSNGWWFGHLHATSLRFRLLRQCGLFIPQDVFKTFQSKTDEFDMKLCDNIKGLLSLYEASFLGWKGENILDEAKAFATKYLKNAWENISQKWLAKRVKHALALPLHWRVPRIEARWFIEAYEQEENMNPTLLKLAKLDFNMVQSIHQKEIGELARWWVTTGLDKLAFARNNLLQSYMWSCAIASDPKFKLARETIVEIGSVLTVVDDAYDVYGSMDELDHYTYSVERWSCVEIDKLPNTLKLIFMSMFNKTNEVGLRVQHERGYNGIPTFIKAWVEQCKAYQKEARWYHGGHTPPLEEYSLNGLVSIGFPLLLITGYIAIAENEAALDKVHPLPDLLHYSSLLSRLINDMGTSPDEMARGDNLKSIHCYMNETGASEEVAREHIKGIIEENWKILNQCCFDQSQFQEPFITFNLNSVRGSHFFYEFGDGFGVTDSWTKVDMKSVLIDPIPLGEE
modifications: SspiSSy Protein
In the case of B1, the “Relative % composition in oil produced by enzyme: epi-β-santalol” value [1] is reported as 4.2%, the “Relative % composition in oil produced by enzyme: α-santalol” value [1] is reported as 47.3% and the “E-β-farnesene among reaction products (GC-FID)” value ([2]; FPP Mg, mean) is reported as 2.2. The “Z-β-farnesene among reaction products (GC-FID)” value ([2]; FPP Mg, mean) was 0.7, the “epi-β-santalene among reaction products (GC-FID)” value ([2]; FPP Mg, mean) was 4.2 and the “α-E-bergamotene among reaction products (GC-FID)” value ([2]; FPP Mg, mean) was 19.2. The “α-santalene among reaction products (GC-FID)” value ([2]; FPP Mg, mean) was 47.3, the “β-santalene among reaction products (GC-FID)” value ([2]; FPP Mg, mean) was 26.3 and the “E-β-farnesene among reaction products (GC-FID)” value ([2]; FPP Mg, replicate 1) was 2.5. The “Z-β-farnesene among reaction products (GC-FID)” value ([2]; FPP Mg, replicate 1) was 0.7, the “epi-β-santalene among reaction products (GC-FID)” value ([2]; FPP Mg, replicate 1) was 4.6 and the “α-E-bergamotene among reaction products (GC-FID)” value ([2]; FPP Mg, replicate 1) was 19.6. The “α-santalene among reaction products (GC-FID)” value ([2]; FPP Mg, replicate 1) was 46.3, the “β-santalene among reaction products (GC-FID)” value ([2]; FPP Mg, replicate 1) was 26.4 and the “E-β-farnesene among reaction products (GC-FID)” value ([2]; FPP Mg, replicate 2) was 2.2. For the same molecule, the “Z-β-farnesene among reaction products (GC-FID)” value ([2]; FPP Mg, replicate 2) was 0.6, the “epi-β-santalene among reaction products (GC-FID)” value ([2]; FPP Mg, replicate 2) was 4.2 and the “α-E-bergamotene among reaction products (GC-FID)” value ([2]; FPP Mg, replicate 2) was 19.2. For the same molecule, the “α-santalene among reaction products (GC-FID)” value ([2]; FPP Mg, replicate 2) was 47.4, the “β-santalene among reaction products (GC-FID)” value ([2]; FPP Mg, replicate 2) was 26.4 and the “E-β-farnesene among reaction products (GC-FID)” value ([2]; FPP Mg, replicate 3) was 2.0. For the same molecule, the “Z-β-farnesene among reaction products (GC-FID)” value ([2]; FPP Mg, replicate 3) was 0.8, the “epi-β-santalene among reaction products (GC-FID)” value ([2]; FPP Mg, replicate 3) was 4.0 and the “α-E-bergamotene among reaction products (GC-FID)” value ([2]; FPP Mg, replicate 3) was 18.9. For the same molecule, the “α-santalene among reaction products (GC-FID)” value ([2]; FPP Mg, replicate 3) was 48.1, the “β-santalene among reaction products (GC-FID)” value ([2]; FPP Mg, replicate 3) was 26.3 and the “E-β-farnesene among reaction products (GC-FID)” value ([2]; FPP Mn, mean) was 8.2. For the same molecule, the “Z-β-farnesene among reaction products (GC-FID)” value ([2]; FPP Mn, mean) was 1.0, the “epi-β-santalene among reaction products (GC-FID)” value ([2]; FPP Mn, mean) was 1.3 and the “α-E-bergamotene among reaction products (GC-FID)” value ([2]; FPP Mn, mean) was 78.9. For the same molecule, the “α-santalene among reaction products (GC-FID)” value ([2]; FPP Mn, mean) was 7.3, the “β-santalene among reaction products (GC-FID)” value ([2]; FPP Mn, mean) was 3.4 and the “E-β-farnesene among reaction products (GC-FID)” value ([2]; FPP Mn, replicate 1) was 8.1. The “Z-β-farnesene among reaction products (GC-FID)” value ([2]; FPP Mn, replicate 1) was 1.0, the “epi-β-santalene among reaction products (GC-FID)” value ([2]; FPP Mn, replicate 1) was 1.4 and the “α-E-bergamotene among reaction products (GC-FID)” value ([2]; FPP Mn, replicate 1) was 79.0. For the same molecule, the “α-santalene among reaction products (GC-FID)” value ([2]; FPP Mn, replicate 1) was 7.2, the “β-santalene among reaction products (GC-FID)” value ([2]; FPP Mn, replicate 1) was 3.3 and the “E-β-farnesene among reaction products (GC-FID)” value ([2]; FPP Mn, replicate 2) was 8.0. The “Z-β-farnesene among reaction products (GC-FID)” value ([2]; FPP Mn, replicate 2) was 1.0, the “epi-β-santalene among reaction products (GC-FID)” value ([2]; FPP Mn, replicate 2) was 1.7 and the “α-E-bergamotene among reaction products (GC-FID)” value ([2]; FPP Mn, replicate 2) was 78.6. For the same molecule, the “α-santalene among reaction products (GC-FID)” value ([2]; FPP Mn, replicate 2) was 7.4, the “β-santalene among reaction products (GC-FID)” value ([2]; FPP Mn, replicate 2) was 3.4 and the “E-β-farnesene among reaction products (GC-FID)” value ([2]; FPP Mn, replicate 3) was 8.4. The “Z-β-farnesene among reaction products (GC-FID)” value ([2]; FPP Mn, replicate 3) was 1.0, the “epi-β-santalene among reaction products (GC-FID)” value ([2]; FPP Mn, replicate 3) was 0.7 and the “α-E-bergamotene among reaction products (GC-FID)” value ([2]; FPP Mn, replicate 3) was 79.1. The “α-santalene among reaction products (GC-FID)” value ([2]; FPP Mn, replicate 3) was 7.3, the “β-santalene among reaction products (GC-FID)” value ([2]; FPP Mn, replicate 3) was 3.5 and the “Relative % composition in oil produced by enzyme: E-α-bergamotol” value ([2]; GC-FID) was 19.2%. The “Relative % composition in oil produced by enzyme: β-santalol” value ([2]; GC-FID) was 26.3%.
